Results on one molecule are retold here after PMC11291072 (bioRxiv, 2024).

The target of the test is T1, ERK2-phosphorylated human PPARγ2 AF-1 domain (pS112 + pT75), residues 1-136 (human, UniProt P37231-1 1-136).
T1 sequence: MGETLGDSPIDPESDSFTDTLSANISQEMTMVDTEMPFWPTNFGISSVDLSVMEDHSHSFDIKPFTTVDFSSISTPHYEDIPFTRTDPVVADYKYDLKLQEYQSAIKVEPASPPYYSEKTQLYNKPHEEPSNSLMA
The test can be described thus: NMR titration.

B1: Pin1 PPIase domain (residues 42-163) (domain or fragment)
chain: SSGGKNGQGEPARVRCSHLLVKHSQSRRPSSWRQEKITRTKEEALELINGYIQKIKSGEEDFESLASQFSDCSSAKARGDLGAFSRGQMQKPFEDASFALRTGEMSGPVFTDSGIHIILRTE
Take B1: the binding result is on record as “binds”.
